The test system of series [1] is HeLa Kyoto. The experiment in a line: melting temperature (median over replicates), in situ; higher = more thermally stable.
In series [2] the test system is HeLa Kyoto. In words: thermal stability score vs G1/S (z-score of summed log2 fold changes over temperatures); higher = more thermally stable than in G1/S.
Series [3] deals with HeLa Kyoto. The experiment in a line: solubility in G1/S (NP-40 vs SDS abundance) (log2 ratio); higher = more soluble. The conditions noted are these: cell cycle stage: G1/S.
Series [4] deals with HeLa Kyoto. The experiment in a line: solubility change mitosis vs G1/S (difference of NP-40 vs SDS log2 ratios) (log2 ratio difference); higher = more soluble in mitosis.
[5] abbreviates: cell cycle stage: early G1 (4.5 h after nocodazole release).
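Throughout, for melting temperature (median over replicates), in situ: HeLa Kyoto cells synchronized by double thymidine or nocodazole block, proteins quantified by TMT10plex mass spectrometry, three independent biological replicates.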
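Throughout, for solubility change mitosis vs G1/S (difference of NP-40 vs SDS log2 ratios): synchronized HeLa Kyoto cells (double thymidine block for G1/S, nocodazole release for mitosis), protein amounts in NP-40 versus SDS lysates quantified by mass spectrometry, three biological replicates.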
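Throughout, for solubility in G1/S (NP-40 vs SDS abundance): HeLa Kyoto cells arrested at G1/S by double thymidine block, proteins quantified by TMT10plex mass spectrometry in mild NP-40 versus SDS extracts, three biological replicates.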
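Throughout, for thermal stability score vs G1/S (z-score of summed log2 fold changes over temperatures): synchronized HeLa Kyoto cells, proteins quantified by TMT10plex mass spectrometry, three biological replicates, mitosis taken 0.5 h after nocodazole release, G1/S directly after double thymidine block.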

Consider “MAAYSYRPGPGAGPGPAAGAALPDQSFLWNVFQRVDKDRSGVISDTELQQALSNGTWTPFNPVTVRSIISMFDRENKAGVNFSEFTGVWKYITDWQNVFRTYDRDNSGMIDKNELKQALSGFGYRLSDQFHDILIRKFDRQGRGQIAFDDFIQGCIVLQRLTDIFRRYDTDQDGWIQVSYEQYLSMVFSIV [PDCD6]”, for which the values for the melting temperature in series [1] (cell cycle stage: G1/S) and in series [1] (cell cycle stage: mitosis) were 49.3 °C and 50.5 °C, respectively. For the same sequence, the thermal stability score in series [2] (setting [5]) was found to be 2.71; in series [2] (cell cycle stage: mitosis) it was 2.81. In addition, in series [3], the “solubility in G1/S (log2)” value amounted to 0.15. In addition, the “solubility change mitosis (log2)” value in series [4] was 0.26.
Regarding “MAPVGGGGRPVGGPARGRLLLAAPVLLVLLWALGARGQGSPQQGTIVGMRLASCNKSCGTNPDGIIFVSEGSTVNLRLYGYSLGNISSNLISFTEVDDAETLHKSTSCLELTKDLVVQQLVNVSRGNTSGVLVVLTKFLRRSESMKLYALCTRAQPDGPWLKWTDKDSLLFMVEEPGRFLPLWLHILLITVLLVLSGIFSGLNLGLMALDPMELRIVQNCGTEKERRYARKIEPIRRKGNYLLCSLLLGNVLVNTSLTILLDNLIGSGLMAVASSTIGIVIFGEILPQALCSRHGLAVGANTILLTKFFMLLTFPLSFPISKLLDFFLGQEIRTVYNREKLMEMLKVTEPYNDLVKEELNMIQGALELRTKTVEDIMTQLQDCFMIRSDAILDFNTMSEIMESGYTRIPVFEDEQSNIVDILYVKDLAFVDPDDCTPLKTITRFYNHPVHFVFHDTKLDAMLEEFKKGKSHLAIVQKVNNEGEGDPFYEVLGLVTLEDVIEEIIKSEILDESDMYTDNRSRKRVSEKNKRDFSAFKDADNELKVKISPQLLLAAHRFLATEVSQFSPSLISEKILLRLLKYPDVIQELKFDEHNKYYARHYLYTRNKPADYFILILQGKVEVEAGKENMKFETGAFSYYGTMALTSVPSDRSPAHPTPLSRSASLSYPDRTDVSTAATLAGSSNQFGSSVLGQYISDFSVRALVDLQYIKITRQQYQNGLLASRMENSPQFPIDGCTTHMENLAEKSELPVVDETTTLLNERNSLLHKASHENAI [CNNM4]”, the melting temperature in series [1] (cell cycle stage: G1/S) was 51.7 °C; in series [1] (cell cycle stage: mitosis), 52.1 °C. The thermal stability score in series [2] (setting [5]) was -0.56; in series [2] (cell cycle stage: mitosis), -0.485. Besides, the “solubility in G1/S (log2)” value in series [3] is -0.12. Further, the “solubility change mitosis (log2)” value in series [4] is -0.0459.
Consider “MWRVKKLSLSLSPSPQTGKPSMRTPLRELTLQPGALTNSGKRSPACSSLTPSLCKLGLQEGSNNSSPVDFVNNKRTDLSSEHFSHSSKWLETCQHESDEQPLDPIPQISSTPKTSEEAVDPLGNYMVKTIVLVPSPLGQQQDMIFEARLDTMAETNSISLNGPLRTDDLVREEVAPCMGDRFSEVAAVSEKPIFQESPSHLLEESPPNPCSEQLHCSKESLSSRTEAVREDLVPSESNAFLPSSVLWLSPSTALAADFRVNHVDPEEEIVEHGAMEEREMRFPTHPKESETEDQALVSSVEDILSTCLTPNLVEMESQEAPGPAVEDVGRILGSDTESWMSPLAWLEKGVNTSVMLENLRQSLSLPSMLRDAAIGTTPFSTCSVGTWFTPSAPQEKSTNTSQTGLVGTKHSTSETEQLLCGRPPDLTALSRHDLEDNLLSSLVILEVLSRQLRDWKSQLAVPHPETQDSSTQTDTSHSGITNKLQHLKESHEMGQALQQARNVMQSWVLISKELISLLHLSLLHLEEDKTTVSQESRRAETLVCCCFDLLKKLRAKLQSLKAEREEARHREEMALRGKDAAEIVLEAFCAHASQRISQLEQDLASMREFRGLLKDAQTQLVGLHAKQEELVQQTVSLTSTLQQDWRSMQLDYTTWTALLSRSRQLTEKLTVKSQQALQERDVAIEEKQEVSRVLEQVSAQLEECKGQTEQLELENSRLATDLRAQLQILANMDSQLKELQSQHTHCAQDLAMKDELLCQLTQSNEEQAAQWQKEEMALKHMQAELQQQQAVLAKEVRDLKETLEFADQENQVAHLELGQVECQLKTTLEVLRERSLQCENLKDTVENLTAKLASTIADNQEQDLEKTRQYSQKLGLLTEQLQSLTLFLQTKLKEKTEQETLLLSTACPPTQEHPLPNDRTFLGSILTAVADEEPESTPVPLLGSDKSAFTRVASMVSLQPAETPGMEESLAEMSIMTTELQSLCSLLQESKEEAIRTLQRKICELQARLQAQEEQHQEVQKAKEADIEKLNQALCLRYKNEKELQEVIQQQNEKILEQIDKSGELISLREEVTHLTRSLRRAETETKVLQEALAGQLDSNCQPMATNWIQEKVWLSQEVDKLRVMFLEMKNEKEKLMIKFQSHRNILEENLRRSDKELEKLDDIVQHIYKTLLSIPEVVRGCKELQGLLEFLS [SPAG5]”, for which the results for the melting temperature in series [1] (cell cycle stage: G1/S) and in series [1] (cell cycle stage: mitosis) were 48.2 °C and 48.4 °C, respectively. Further, the thermal stability score in series [2] (setting [5]) stood at 0.87; in series [2] (cell cycle stage: mitosis), 2.82. Also, in series [3], the “solubility in G1/S (log2)” value stood at 0.306. Further, the “solubility change mitosis (log2)” value in series [4] is -0.134.
“MTILTYPFKNLPTASKWALRFSIRPLSCSSQLRAAPAVQTKTKKTLAKPNIRNVVVVDGVRTPFLLSGTSYKDLMPHDLARAALTGLLHRTSVPKEVVDYIIFGTVIQEVKTSNVAREAALGAGFSDKTPAHTVTMACISANQAMTTGVGLIASGQCDVIVAGGVELMSDVPIRHSRKMRKLMLDLNKAKSMGQRLSLISKFRFNFLAPELPAVSEFSTSETMGHSADRLAAAFAVSRLEQDEYALRSHSLAKKAQDEGLLSDVVPFKVPGKDTVTKDNGIRPSSLEQMAKLKPAFIKPYGTVTAANSSFLTDGASAMLIMAEEKALAMGYKPKAYLRDFMYVSQDPKDQLLLGPTYATPKVLEKAGLTMNDIDAFEFHEAFSGQILANFKAMDSDWFAENYMGRKTKVGLPPLEKFNNWGGSLSLGHPFGATGCRLVMAAANRLRKEGGQYGLVAACAAGGQGHAMIVEAYPK [HADHB]”: the melting temperature in series [1] (cell cycle stage: G1/S) and in series [1] (cell cycle stage: mitosis) was 50.7 °C throughout. Also, the thermal stability score in series [2] (setting [5]) is -0.727; in series [2] (cell cycle stage: mitosis), -0.0884. Also, in series [3], the “solubility in G1/S (log2)” value was determined as 0.274. Besides, in series [4], the “solubility change mitosis (log2)” value was -0.0395.
Consider “MARKRAAGGEPRGRELRSQKSKAKSKARREEEEEDAFEDEKPPKKSLLSKVSQGKRKRGCSHPGGSADGPAKKKVAKVTVKSENLKVIKDEALSDGDDLRDFPSDLKKAHHLKRGATMNEDSNEEEEESENDWEEVEELSEPVLGDVRESTAFSRSLLPVKPVEIEIETPEQAKTRERSEKIKLEFETYLRRAMKRFNKGVHEDTHKVHLLCLLANGFYRNNICSQPDLHAIGLSIIPARFTRVLPRDVDTYYLSNLVKWFIGTFTVNAELSASEQDNLQTTLERRFAIYSARDDEELVHIFLLILRALQLLTRLVLSLQPIPLKSATAKGKKPSKERLTADPGGSSETSSQVLENHTKPKTSKGTKQEETFAKGTCRPSAKGKRNKGGRKKRSKPSSSEEDEGPGDKQEKATQRRPHGRERRVASRVSYKEESGSDEAGSGSDFELSSGEASDPSDEDSEPGPPKQRKAPAPQRTKAGSKSASRTHRGSHRKDPSLPAASSSSSSSKRGKKMCSDGEKAEKRSIAGIDQWLEVFCEQEEKWVCVDCVHGVVGQPLTCYKYATKPMTYVVGIDSDGWVRDVTQRYDPVWMTVTRKCRVDAEWWAETLRPYQSPFMDREKKEDLEFQAKHMDQPLPTAIGLYKNHPLYALKRHLLKYEAIYPETAAILGYCRGEAVYSRDCVHTLHSRDTWLKKARVVRLGEVPYKMVKGFSNRARKARLAEPQLREENDLGLFGYWQTEEYQPPVAVDGKVPRNEFGNVYLFLPSMMPIGCVQLNLPNLHRVARKLDIDCVQAITGFDFHGGYSHPVTDGYIVCEEFKDVLLTAWENEQAVIERKEKEKKEKRALGNWKLLAKGLLIRERLKRRYGPKSEAAAPHTDAGGGLSSDEEEGTSSQAEAARILAASWPQNREDEEKQKLKGGPKKTKREKKAAASHLFPFEQL [XPC]”, for which the melting temperature in series [1] (cell cycle stage: G1/S) amounted to 47.7 °C; in series [1] (cell cycle stage: mitosis) it was 48.4 °C. The thermal stability score in series [2] (setting [5]) stood at 0.959; in series [2] (cell cycle stage: mitosis) it was 2.74. In addition, in series [3], the “solubility in G1/S (log2)” value is -0.919. For the same sequence, in series [4], the “solubility change mitosis (log2)” value came out at 0.43.
